Laboratory results taken from patent US20260263521A1, “ANTI-CD200R1 ANTIBODY AND USE THEREOF” (AIMED BIO INC., priority 2023, published 2026).

Tested on: Th1/Th2 cytokines in nasal polyp patient specimens
Test: Ex vivo cytokine inhibition in nasal polyp patient specimens (CBA)
Assay type: cell-based, human
Details: antibody drugs 100 nM; three DUPIXENT-resistant samples of 10; Th2 cytokines IL-5, IL-4
Experimental: The specimens were finely chopped and minced, and then additionally processed twice using the m_lung_02 protocol on a gentleMACS (Miltenyi Biotec) to obtain tissue fragments. After centrifugation at 1500 rpm for 3 minutes to ensure that all tissues formed a pellet, RPMI media+10% FBS was aliquoted in the pellet at a 1:3 ratio. The pellet was thoroughly mixed with the medium and dispensed into a 96-well u-bottom plate, 100 μl per well, in triplicate for each drug. To establish the screening assay, results were obtained first using dexamethasone (a steroid-based positive control drug), followed by treatment with the anti-CD200R1 antibody (P001009v1) and other drugs used for the corresponding disease. All antibody-based drugs were treated at 100 nM, while steroid drugs such as dexamethasone were treated at 20 μM.
After drug treatment, the cells were incubated at 37° C. for 1 hour. To increase overall cytokine levels, 4 μl of a 10-fold diluted cell stimulation cocktail 500× (Invitrogen #00-4970-03) was added on each well and mixed. After reaction for 24 hours at 37° C., the supernatant was collected by centrifugation. Using the human Th1/Th2 cytokine cytometric bead array (CBA) kit (BD, #550749), cytokine levels in the supernatant were measured and the degree of drug responsiveness of each sample was determined.

B1: P001009v1: P001009 variant, LC S52 and LC S94 substituted with K and R; VH SEQ ID NO: 79 (antibody, V domains shown)
VH: EVQLLESGGGLVQPGGSLRLSCAASGFTFSSYDMSWVRQAPGKGLEWVSWISHGGGSIYYADSVKGRFTISRDNSKNTLYLQMNSLRAEDTAVYYCARDAPAYSAPLFDYWGQGTLVTVSS
VL: QSVLTQPPSASGTPGQRVTISCSGSSSNIGNNAVNWYQQLPGTAPKLLIYYDKNRPSGVPDRFSGSKSGTSASLAISGLRSEDEADYYCAAWDDRLSGYVFGGGTKLTVL
  cytokine suppression in nasal polyp patient samples: superior cytokine suppression
